Laboratory results from PMC5700373, “Repression of YdaS Toxin Is Mediated by Transcriptional Repressor RacR in the Cryptic rac Prophage of Escherichia coli K-12”.

What was measured:
[1] = molecular target: T1, RacR (Escherichia coli K-12) (UniProt P76062); assay: EMSA; details: EMSA: 10x buffer 100 mM Tris pH 8, 10 mM EDTA, 1 M NaCl, 1 mM DTT, 50% glycerol, 0.1 mg/ml BSA (presumably 1x final), room temperature 1 h, SYBR green stain. …
T1 sequence: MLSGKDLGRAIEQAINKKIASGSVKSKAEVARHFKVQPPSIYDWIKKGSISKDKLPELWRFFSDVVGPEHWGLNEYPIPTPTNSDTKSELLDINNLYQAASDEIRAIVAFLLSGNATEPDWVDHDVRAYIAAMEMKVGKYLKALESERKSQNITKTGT

RacR = molecular target: T2, RacR (Escherichia coli K-12, UniProt P76062 1-158); assay: EMSA; 23.5 nM DNA, RacR up to 67.5 nM; single complex; EMSA: 10x buffer 100 mM Tris pH 8, 10 mM EDTA, 1 M NaCl, 1 mM DTT, 50% glycerol, 0.1 mg/ml BSA (presumably 1x final), room temperature 1 h, SYBR green stain. TSA: 50 mM Tris pH 8.5, 500 mM NaCl, 5% glycerol, 20-95 C; details: protein: recombinant; tags: C-terminal His (pET28a); chain copies: 2; blunt
T2 sequence: T1 sequence

“TGCTTAATATTCTCCTATGCGCATTACATTAGGCAATCCCTACCCTTACTGCATTAGGCACAGCCTATTGACAATTGCGTTAGGCGTCGCCTAATATTTCTGTGTGTTTTTGGAGTTCATTCG (double strand) [123-bp racR-ydaS IGR]” was tested, and the binding [1] was “binds”.

B1: 49-bp region upstream of ydaS (dsDNA)
DNA 1: CGAATGAACTCCAAAAACACACAGAAATATTAGGCGACGCCTAACGCAA
DNA 2: TTGCGTTAGGCGTCGCCTAATATTTCTGTGTGTTTTTGGAGTTCATTCG
B1: binds (RacR).
